# Residue numbers refer to the chain shown, from its start.
# B1: E6 (designed binder)
# 10Fn3 domain: MGVSDVPRDLEVVAATPTSLLISWQVPRPMYQYYRITYGETGGNSPVQEFTVPYDVYTATISGLKPGVDYTITVYAVTDSYNPATHEYKYHQTPISINYRTEIDKPSQ
# B2: E7 (designed binder)
# 10Fn3 domain: B1 10Fn3 domain with Y57H
# B3: E8 (designed binder)
# 10Fn3 domain: B1 10Fn3 domain with V56L, Y57T
# B4: E9 (designed binder)
# 10Fn3 domain: B1 10Fn3 domain with Q25E, V26A, P27N, R28P, P29S, M30R, Y54H, V56L, Y57N
# B5: E10 (designed binder)
# 10Fn3 domain: MGVSDVPRDLEVVAATPTSLLISWYPGSRTYQYYRITYGETGGNSPVQEFTVPGGVRTATISGLKPGVDYTITVYAVTDYYHPATYEHEYHAHPISINYRTEIDKPSQ
# B6: E11 (designed binder)
# 10Fn3 domain: MGVSDVPRDLEVVAATPTSLLISWTPANKSYQYYRITYGETGGNSPVQEFTVPYDGTTATISGLKPGVDYTITVYAVTDHKPHADGPHTYHEYPISINYRTEIDKPSQ
# B7: E12 (designed binder)
# 10Fn3 domain: B1 10Fn3 domain with Y54H
# B8: E13 (designed binder)
# 10Fn3 domain: B1 10Fn3 domain with Y54G, D55Q
# B9: E14 (designed binder)
# 10Fn3 domain: B1 10Fn3 domain with Y57T
# B10: E15 (designed binder)
# 10Fn3 domain: B1 10Fn3 domain with Y54H, V56L, Y57R
# B11: E16 (designed binder)
# 10Fn3 domain: B6 10Fn3 domain with T25Q, P26V, A27P, N28R, K29P, S30M, G56L, T57V, Y93S
# B12: E17 (designed binder)
# 10Fn3 domain: MGVSDVPRDLEVVAATPTSLLISWQVPRPMYQYYRITYGETGGNSPVQEFTVPGMVHTATISGLKPGVDYTITVYAVTDHKPHADGPHTYHESPISINYRTEIDKPSQ
# B13: E22 (designed binder)
# 10Fn3 domain: B1 10Fn3 domain with Q25S, V26T, P27G, P29T, M30T, Y54H, V56L, Y57D
# B14: E23 (designed binder)
# 10Fn3 domain: MGVSDVPRDLEVVAATPTSLLISWQVPRPMYQYYRITYGETGGNSPVQEFTVPYDVITATISGLKPGVDYTITVYAVTDMMHVEYAEYPISINYRTEIDKPSQ
# B15: E77 (designed binder)
# 10Fn3 domain: MGVSDVPRDLEVVAATPTSLLISWSSATRPYQYYRITYGETGGNSPVQEFTVPGGVRTATISGLKPGVDYTITVYAVTDFFNPTTHEYYYHTTPISINYRTEIDKPSQ
# B16: E78 (designed binder)
# 10Fn3 domain: B15 10Fn3 domain with S26V, A27E, T28R, R29S, P30V, F80Y, F81Y, T84S, Y89N, H91L
# B17: E79 (designed binder)
# 10Fn3 domain: MGVSDVPRDLEVVAATPTSLLISWQDTSSYHQYYRITYGETGGNSPVQEFTVPGGVRTATISGLKPGVDYTITVYAVTDYFNPSTHEYIYRTIPISINYRTEIDKPSQ
# B18: E80 (designed binder)
# 10Fn3 domain: B15 10Fn3 domain with A27S, T28H, P30R, G55S, R57A, F80Y, T84D, Y89L, T92A
# B19: E81 (designed binder)
# 10Fn3 domain: MGVSDVPRDLEVVAATPTSLLISWDNNSNSYQYYRITYGETGGNSPVQEFTVPYDLRTATISGLKPGVDYTITVYAVTDYKPHTEGEHTYHESPISINYRTEIDKPSQ
# B20: E82 (designed binder)
# 10Fn3 domain: B12 10Fn3 domain with Q25R, P27L, R28V, P29D, M55G, H57L, H80Y, A84V, H91Y
# B21: E83 (designed binder)
# 10Fn3 domain: MGVSDVPRDLEVVAATPTSLLISWMFVGMSYQYYRITYGETGGNSPVQEFTVPYGVHTATISGLKPGVDYTITVYAVTDYFNPATHEYIYHVTPISINYRTEIDKPSQ
# B22: E84 (designed binder)
# 10Fn3 domain: MGVSDVPRDLEVVAATPTSLLISWTLHRKNYQYYRITYGETGGNSPVQEFTVPGGVVTATISGLKPGVDYTITVYAVTDYYNPATHEYDYRTTPISINYRTEIDKPSQ
# B23: E85 (designed binder)
# 10Fn3 domain: MGVSDVPRDLEVVAATPTSLLISWTQGSTHYQYYRITYGETGGNSPVQEFTVPGMVYTATISGLKPGVDYTITVYAVTDYFDRSTHEYKYRTTPISINYRTEIDKPSQ
# B24: E4 (designed binder)
# 10Fn3 domain: B17 10Fn3 domain with Q25H, D26E, T27R, S28D, S29G, Y30S, H31R, S84T, R91Q, I93T
# B25: E99 (designed binder)
# 10Fn3 domain: B12 10Fn3 domain with Q25D, V26A, R28T, P29S, M30R, M55G, H57R, H80Y, S93Y
# B26: E100 (designed binder)
# 10Fn3 domain: B6 10Fn3 domain with Y54H, G56L, T57V
# B27: E101 (designed binder)
# 10Fn3 domain: B19 10Fn3 domain with N26A, N27P, S28A, N29V, S30T, Y54H, R57V, T84A, E85D, E87P
# B28: E102 (designed binder)
# 10Fn3 domain: B6 10Fn3 domain with Y54H, G56L, T57V, Y93S
# B29: E103 (designed binder)
# 10Fn3 domain: MGVSDVPRDLEVVAATPTSLLISWTPANKSYQYYRITYGETGGNSPVQEFTVPGGVRTATISGLKPGVDYTITVYAVTNMMHVEYSEYPISINYRTEIDKPSQ
# B30: E104 (designed binder)
# 10Fn3 domain: B6 10Fn3 domain with T25D, P26A, A27G, N28A, K29V, S30T, Y54H, G56L, T57V
# B31: E105 (designed binder)
# 10Fn3 domain: B12 10Fn3 domain with Q25D, V26A, R28T, P29S, M30R, M55G, V56L, H57S, H80Y
# B32: E106 (designed binder)
# 10Fn3 domain: B6 10Fn3 domain with T25D, P26A, A27P, N28A, K29V, S30T, G56V, T57Y, H80Y
# B33: E107 (designed binder)
# 10Fn3 domain: MGVSDVPRDLEVVAATPTSLLISWDSGRGSYQYYRITYGETGGNSPVQEFTVPYDVYTATISGLKPGVDYTITVYAVTDMMHVEYTEHPISINYRTEIDKPSQH
# B34: E108 (designed binder)
# 10Fn3 domain: B12 10Fn3 domain with Q25D, V26A, R28A, P29V, M30T, M55G, H57R, H80Y
# B35: E109 (designed binder)
# 10Fn3 domain: B19 10Fn3 domain with N26A, N27P, S28T, N29S, S30R, Y54H, R57V, T84A, E85D, E87P
# B36: E110 (designed binder)
# 10Fn3 domain: B12 10Fn3 domain with Q25D, V26A, P27G, R28A, P29V, M30T, M55G, H57R, H80Y
# B37: E111 (designed binder)
# 10Fn3 domain: B14 10Fn3 domain with Q25D, V26A, R28T, P29S, M30R, Y54H, V56L, I57V, D79N, A86S
# B38: E112 (designed binder)
# 10Fn3 domain: B12 10Fn3 domain with Q25D, V26A, P27G, R28A, P29V, M30T, M55G, H57R, H80Y, S93Y
# Molecular target: T1, EGFR on the surface of human tumour cells (A431, H292) (human, UniProt P00533 25-1210)
# Experiment: cell-based or functional assay
row,Binder,"% inhibition of EGFR phosphorylation at 100 nM binder, cell-based assay [%]"
1,B1,80
2,B2,89.4
3,B3,92.4
4,B4,77.3
5,B5,84.7
6,B6,83.7
7,B7,76.5
8,B8,86.7
9,B9,80.4
10,B10,88.8
11,B11,97.7
12,B12,75.5

# Molecular target: T1, EGFR on the surface of human tumour …
# Experiment: cell-based or functional assay
# Remark: another data set of the same source
row,Binder,"% inhibition of EGFR phosphorylation at 100 nM binder, cell-based assay [%]"
1,B13,83.7
2,B14,81.1

# Molecular target: T1, EGFR on the surface of human tumour …
# Experiment: cell-based or functional assay
# Remark: another data set of the same source
row,Binder,"% inhibition of EGFR phosphorylation at 100 nM binder, cell-based assay [%]"
1,B15,81.1
2,B16,76.9
3,B17,99.2
4,B18,89.6
5,B19,75.1
6,B20,77.2
7,B21,90.7
8,B22,86.5
9,B23,89.3
10,B24,94.3

# Molecular target: T1, EGFR on the surface of human tumour …
# Experiment: cell-based or functional assay
# Remark: another data set of the same source
row,Binder,"% inhibition of EGFR phosphorylation at 100 nM binder, cell-based assay [%]"
1,B25,84.7
2,B26,83.3
3,B27,90.9
4,B28,80
5,B29,76.3
6,B30,89.3
7,B31,87
8,B32,84
9,B33,75.8
10,B34,80
11,B35,90.9
12,B36,81.3
13,B37,85.5
14,B38,86.2

# Reference: patent publication US20180037631A1 (Bristol-Myers Squibb, published 2018)
